Experimental data as given in PMC11850899 (Communications Biology, 2025).
Read-outs that look alike come from different tables or passages of the source.

What was measured:
[1] = molecular target: the molecule itself; test: cryo-EM structure
[2] = molecular target: the molecule itself; test: cryo-EM structure; remark: listed apart in the source

B1: Bacillus subtilis DSR2 (defense-associated sirtuin 2), wild type (enzyme)
chain: MVKVDLESKRYGEKLKEVFLMLDNNVVECIKEITESSRNGKLVFFVGAGVSTLSDYPQWWRLVDKYHEELYGSPKKGNYSSDEYLRIPQIFYNVKGEMAFDGILKDFFQVDKPTNPIHDKILAMNPAHVITTNYDNLIDTACWKRGKYFSVISAEEDVANATSSRYLLKVHGDFRKGFKGENVVLKEDDYLNYDQNYPLISNLMKTIIATHTIVFIGYGLGDYNINMLLNWVRKLQKDSFHKPFFIRTDPSPIENETLIYYENKGLRIIDAASLIDSNEYDYLERYSAVMDLLIESQENKFITKDDEVIDYIYGKISPLFALQYIRKIDLKHVFEYDYHFEVNGTVVRHKNKGFGYMERFFELKESCDERSKLSKKQYERFNALFNFFEKNGVICMAKDAGTLNTSIEINSLAYHGKYDVMKKFIEEQSVSIEDDYKKAFFLACLGRWEESYDLYSNIILNSIDESNGCVYYLSQINRYRIYQSITQAVTQFNGLGLLTFGRHYKPFTDEFLARIEREMTNFNIDDLFNGMPFEFQKKYKILEFLSDNQFLYDDTVKLFELTNKVRSEMSEGSYSFGMSSDIVVLLRLYDNLRFLYENCLWSVSFHEFHQYIRNSMSLLIEKAEYERTRDIDELGFSFFGKKSGFFMEYYDFVNISRHFKIDDIKNLERSCSIDKIRFGEQEKIEEYLVGIAEEITKQFSANGMNVVFYTQFISEAKAALYFAKYVKLSEEGLGKIVKALLFYFPERDLDIGKRYVWLERLTKCNELPKSIISIIDDFLVLQAEKHIDQNYSEVSSNGLYSRDYGALIKHFEKNFISKRLSEITLCLTQDKQKQIDFLFKLLPLLSTNAKSHLLSFKSVENINDLMNGIRIGLIDEFTPEHEELIIEYLETRKVNYIVEKEKGIQTFSSNDYMSTFGIWYFLEEINNSKMEEFIGMDDQYDFFVDPENFDYKKFIPSWLKNYNDKLLGKIAGNKHMKHHVIEVLKERVKNSNDKRYLEILMNYFI
With B1 the “stoichiometry N” value [1] was 4.

B2: Bacillus subtilis DSR2 H171A (catalytic mutant) (enzyme, UniProt P0DXN8 1-1005, looked up)
chain: MVKVDLESKRYGEKLKEVFLMLDNNVVECIKEITESSRNGKLVFFVGAGVSTLSDYPQWWRLVDKYHEELYGSPKKGNYSSDEYLRIPQIFYNVKGEMAFDGILKDFFQVDKPTNPIHDKILAMNPAHVITTNYDNLIDTACWKRGKYFSVISAEEDVANATSSRYLLKVAGDFRKGFKGENVVLKEDDYLNYDQNYPLISNLMKTIIATHTIVFIGYGLGDYNINMLLNWVRKLQKDSFHKPFFIRTDPSPIENETLIYYENKGLRIIDAASLIDSNEYDYLERYSAVMDLLIESQENKFITKDDEVIDYIYGKISPLFALQYIRKIDLKHVFEYDYHFEVNGTVVRHKNKGFGYMERFFELKESCDERSKLSKKQYERFNALFNFFEKNGVICMAKDAGTLNTSIEINSLAYHGKYDVMKKFIEEQSVSIEDDYKKAFFLACLGRWEESYDLYSNIILNSIDESNGCVYYLSQINRYRIYQSITQAVTQFNGLGLLTFGRHYKPFTDEFLARIEREMTNFNIDDLFNGMPFEFQKKYKILEFLSDNQFLYDDTVKLFELTNKVRSEMSEGSYSFGMSSDIVVLLRLYDNLRFLYENCLWSVSFHEFHQYIRNSMSLLIEKAEYERTRDIDELGFSFFGKKSGFFMEYYDFVNISRHFKIDDIKNLERSCSIDKIRFGEQEKIEEYLVGIAEEITKQFSANGMNVVFYTQFISEAKAALYFAKYVKLSEEGLGKIVKALLFYFPERDLDIGKRYVWLERLTKCNELPKSIISIIDDFLVLQAEKHIDQNYSEVSSNGLYSRDYGALIKHFEKNFISKRLSEITLCLTQDKQKQIDFLFKLLPLLSTNAKSHLLSFKSVENINDLMNGIRIGLIDEFTPEHEELIIEYLETRKVNYIVEKEKGIQTFSSNDYMSTFGIWYFLEEINNSKMEEFIGMDDQYDFFVDPENFDYKKFIPSWLKNYNDKLLGKIAGNKHMKHHVIEVLKERVKNSNDKRYLEILMNYFI
For B2, the “stoichiometry N” value [2] was 4.
